Target: T1, Recombinant Human DLL4 (R&D Systems Cat#1506-D4/CF) (human, UniProt Q9NR61 27-524)
T1 construct: also called delta-like protein 4; Delta-like 4
Assay: ECL (MSD) multispot binding assay, immobilised recombinant human DLL4, Fab at 0.04 uM
Experimental: An 150 μl aliquot of 1% Bovine Serum Albumin (BSA) in Tris-buffered Saline Tween (TBST) was added to each well and allowed to incubate for 30 min at 20° C. followed by washing and tap drying to completely remove any residual solution. Subsequently, a 12.5 μl aliquot of 1% BSA TBST was added to each well followed by the addition of a 12.5 μl aliquot of a purified Fab. The plate was sealed and incubated for 1 hour at 20° C. with shaking
TAG-detection antibody at 25 μl was added to each well and allowed to incubate for 1 hour at 20° C. with shaking. Finally, 15 μl of Read Buffer P with Surfactant (Cat # R92PC-1, Meso Scale Discovery) was added to each well. The electrochemiluminescence was measured using a Sector Imager 2400 (Meso Scale Discovery). Data was analyzed by comparing the ECL signals for an antigen to the blank of each well. A signal to blank ratio of 4 or more was considered a “Hit” Fab.

Binder	ECL Signal/Noise
Fab VH5-51_IGHD5-18*01>3_IGHJ4*01 G100K/G104T (H:KT) & V3-4_IGLJ1*01 (Fab, V domains shown, Tested as purified Fab made in E. coli; also called H:KT & L:wt; KT double mutant) VH: EVQLVQSGAEVKKPGESLKISCKGSGYSFTSYWIGWVRQMPGKGLEWMGIIYPGDSDTRYSPSFQGQVTISADKSISTAYLQWSSLKASDTAMYYCARRKYSYTYDYFDYWGQGTLVTVSS VL: QTVVTQEPSFSVSPGGTVTLTCGLSSGSVSTSYYPSWYQQTPGQAPRTLIYSTNTRSSGVPDRFSGSILGNKAALTITGAQADDESDYYCVLYMGSGISYVFGTGTKVTVL	49.2
Fab VH5-51_IGHD5-18*01>3_IGHJ4*01 G100K/G104T (H:KT) & V3-4_IGLJ1*01 G97A (Fab, V domains shown, Fab; CH1 (His6/Flag tags, plasmid A) and lambda CL (plasmid E) as for the parent) VH: EVQLVQSGAEVKKPGESLKISCKGSGYSFTSYWIGWVRQMPGKGLEWMGIIYPGDSDTRYSPSFQGQVTISADKSISTAYLQWSSLKASDTAMYYCARRKYSYTYDYFDYWGQGTLVTVSS VL: QTVVTQEPSFSVSPGGTVTLTCGLSSGSVSTSYYPSWYQQTPGQAPRTLIYSTNTRSSGVPDRFSGSILGNKAALTITGAQADDESDYYCVLYMGSAISYVFGTGTKVTVL	24.7
Fab VH5-51_IGHD5-18*01>3_IGHJ4*01 G100K/G104T (H:KT) & V3-4_IGLJ1*01 I98A (Fab, V domains shown, Fab; CH1 (His6/Flag tags, plasmid A) and lambda CL (plasmid E) as for the parent) VH: EVQLVQSGAEVKKPGESLKISCKGSGYSFTSYWIGWVRQMPGKGLEWMGIIYPGDSDTRYSPSFQGQVTISADKSISTAYLQWSSLKASDTAMYYCARRKYSYTYDYFDYWGQGTLVTVSS VL: QTVVTQEPSFSVSPGGTVTLTCGLSSGSVSTSYYPSWYQQTPGQAPRTLIYSTNTRSSGVPDRFSGSILGNKAALTITGAQADDESDYYCVLYMGSGASYVFGTGTKVTVL	32.6
Fab VH5-51_IGHD5-18*01>3_IGHJ4*01 G100K/G104T (H:KT) & V3-4_IGLJ1*01 L92A (Fab, V domains shown, Fab; CH1 (His6/Flag tags, plasmid A) and lambda CL (plasmid E) as for the parent) VH: EVQLVQSGAEVKKPGESLKISCKGSGYSFTSYWIGWVRQMPGKGLEWMGIIYPGDSDTRYSPSFQGQVTISADKSISTAYLQWSSLKASDTAMYYCARRKYSYTYDYFDYWGQGTLVTVSS VL: QTVVTQEPSFSVSPGGTVTLTCGLSSGSVSTSYYPSWYQQTPGQAPRTLIYSTNTRSSGVPDRFSGSILGNKAALTITGAQADDESDYYCVAYMGSGISYVFGTGTKVTVL	30.3
Fab VH5-51_IGHD5-18*01>3_IGHJ4*01 G100K/G104T (H:KT) & V3-4_IGLJ1*01 G95A (Fab, V domains shown, Fab; CH1 (His6/Flag tags, plasmid A) and lambda CL (plasmid E) as for the parent) VH: EVQLVQSGAEVKKPGESLKISCKGSGYSFTSYWIGWVRQMPGKGLEWMGIIYPGDSDTRYSPSFQGQVTISADKSISTAYLQWSSLKASDTAMYYCARRKYSYTYDYFDYWGQGTLVTVSS VL: QTVVTQEPSFSVSPGGTVTLTCGLSSGSVSTSYYPSWYQQTPGQAPRTLIYSTNTRSSGVPDRFSGSILGNKAALTITGAQADDESDYYCVLYMASGISYVFGTGTKVTVL	34.4
Fab VH5-51_IGHD5-18*01>3_IGHJ4*01 G100K/G104T (H:KT) & V3-4_IGLJ1*01 M94A (Fab, V domains shown, Fab; CH1 (His6/Flag tags, plasmid A) and lambda CL (plasmid E) as for the parent) VH: EVQLVQSGAEVKKPGESLKISCKGSGYSFTSYWIGWVRQMPGKGLEWMGIIYPGDSDTRYSPSFQGQVTISADKSISTAYLQWSSLKASDTAMYYCARRKYSYTYDYFDYWGQGTLVTVSS VL: QTVVTQEPSFSVSPGGTVTLTCGLSSGSVSTSYYPSWYQQTPGQAPRTLIYSTNTRSSGVPDRFSGSILGNKAALTITGAQADDESDYYCVLYAGSGISYVFGTGTKVTVL	53.1

Further lines, results first:

ECL Signal/Noise	Binder
21.3	Fab VH5-51_IGHD5-18*01>3_IGHJ4*01 G100K/G104T (H:KT) & V3-4_IGLJ1*01 Y93A (Fab, V domains shown, Fab; CH1 (His6/Flag tags, plasmid A) and lambda CL (plasmid E) as for the parent) VH: EVQLVQSGAEVKKPGESLKISCKGSGYSFTSYWIGWVRQMPGKGLEWMGIIYPGDSDTRYSPSFQGQVTISADKSISTAYLQWSSLKASDTAMYYCARRKYSYTYDYFDYWGQGTLVTVSS VL: QTVVTQEPSFSVSPGGTVTLTCGLSSGSVSTSYYPSWYQQTPGQAPRTLIYSTNTRSSGVPDRFSGSILGNKAALTITGAQADDESDYYCVLAMGSGISYVFGTGTKVTVL
57.9	Fab VH5-51_IGHD5-18*01>3_IGHJ4*01 G100K/G104T (H:KT) & V3-4_IGLJ1*01 S96A (Fab, V domains shown, Fab; CH1 (His6/Flag tags, plasmid A) and lambda CL (plasmid E) as for the parent) VH: EVQLVQSGAEVKKPGESLKISCKGSGYSFTSYWIGWVRQMPGKGLEWMGIIYPGDSDTRYSPSFQGQVTISADKSISTAYLQWSSLKASDTAMYYCARRKYSYTYDYFDYWGQGTLVTVSS VL: QTVVTQEPSFSVSPGGTVTLTCGLSSGSVSTSYYPSWYQQTPGQAPRTLIYSTNTRSSGVPDRFSGSILGNKAALTITGAQADDESDYYCVLYMGAGISYVFGTGTKVTVL
48.5	Fab VH5-51_IGHD5-18*01>3_IGHJ4*01 G100K/G104T (H:KT) & V3-4_IGLJ1*01 V91A (Fab, V domains shown, Fab; CH1 (His6/Flag tags, plasmid A) and lambda CL (plasmid E) as for the parent) VH: EVQLVQSGAEVKKPGESLKISCKGSGYSFTSYWIGWVRQMPGKGLEWMGIIYPGDSDTRYSPSFQGQVTISADKSISTAYLQWSSLKASDTAMYYCARRKYSYTYDYFDYWGQGTLVTVSS VL: QTVVTQEPSFSVSPGGTVTLTCGLSSGSVSTSYYPSWYQQTPGQAPRTLIYSTNTRSSGVPDRFSGSILGNKAALTITGAQADDESDYYCALYMGSGISYVFGTGTKVTVL
41	Fab VH5-51_IGHD5-18*01>3_IGHJ4*01 G100K/G104T (H:KT) & V3-4_IGLJ1*01 S99A (Fab, V domains shown, Fab; CH1 (His6/Flag tags, plasmid A) and lambda CL (plasmid E) as for the parent) VH: EVQLVQSGAEVKKPGESLKISCKGSGYSFTSYWIGWVRQMPGKGLEWMGIIYPGDSDTRYSPSFQGQVTISADKSISTAYLQWSSLKASDTAMYYCARRKYSYTYDYFDYWGQGTLVTVSS VL: QTVVTQEPSFSVSPGGTVTLTCGLSSGSVSTSYYPSWYQQTPGQAPRTLIYSTNTRSSGVPDRFSGSILGNKAALTITGAQADDESDYYCVLYMGSGIAYVFGTGTKVTVL

Reference: patent US20120316071A1 (published 2012)
